Laboratory results published in patent publication US20260241049A1, “Radiopharmaceutical Compositions Targeting Glypican-3 and Uses Thereof” (RayzeBio, Inc., priority 2023, published 2026).
Starred links: 1 amine or outer side, 2 acyl side, 3 side chain; linkers in the order of their positions; H or OH if unused. Positions of bridges follow the written chain, without caps; N, C: chain ends. Non-standard residues stand in square brackets, D forms with d. Groups on a side chain read outwards from the residue. Primed or numbered codes have the meaning given here. *: point of attachment. MeDapCOpipzaa = 3-(4-(carboxymethyl)piperazine-1-carboxamido)-2-(methylamino)propanoic acid, CN([C@@H](CNC(=O)N1CCN(CC(=O)[*:3])CC1)C(=O)[*:2])[*:1]; MeKCOpipzaa = N-alpha-methyl-N6-[4-(carboxymethyl)piperazine-1-carbonyl]-L-lysine, CN([C@@H](CCCCNC(=O)N1CCN(CC(=O)[*:3])CC1)C(=O)[*:2])[*:1]; MeHseMe(3) = N-methyl-O-methyl-homoserine, 4-methoxy-2-(methylamino)butanoic acid, COCC[C@@H](C(=O)[*:2])N(C)[*:1]; F4aao = 4-(carboxymethoxy)-L-phenylalanine, O=C([C@H](Cc1ccc(OCC(=O)[*:3])cc1)N[*:1])[*:2]; MeHseMe = N-methyl-O-methyl-L-homoserine, COCC[C@@H](C(=O)[*:2])N(C)[*:1]; Thr(Me)(3) = TMe, O-methyl-L-threonine, CO[C@H](C)[C@H](N[*:1])C(=O)[*:2]; Thr(Me)″ = TMe = O-methyl-L-threonine, CO[C@H](C)[C@H](N[*:1])C(=O)[*:2]; SulfoCy5 = sulfo-Cyanine5 hexanoyl dye on the side-chain amine; TMe = O-methyl-L-threonine, CO[C@H](C)[C@H](N[*:1])C(=O)[*:2]; NMeAla(isoquinolin-7-yl) = CN[C@@H](Cc1ccc2ccncc2c1)C(=O)O; SulfoCy5(3) = sulfo-Cyanine5 hexanoyl dye on the lysine NZ; PEG12 = NCCOCCOCCOCCOCCOCCOCCOCCOCCOCCOCCOCCOCCC(=O)O; Phe(4-CH2COOH) = N[C@@H](Cc1ccc(CC(=O)O)cc1)C(=O)O; 3Pal(6-Ph) = N[C@@H](Cc1ccc(-c2ccccc2)nc1)C(=O)O; Biotin = O=C1N[C@H]2[C@H](CS[C@H]2CCCCC(=O)*)N1; Phe(4-COOH) = N[C@@H](Cc1ccc(C(=O)O)cc1)C(=O)O; NMe2Nal = CN[C@@H](Cc1ccc2ccccc2c1)C(=O)O; d(tBuAla) = CC(C)(C)C[C@@H](N)C(=O)O; NMeI = CC[C@H](C)[C@H](NC)C(=O)O; NMeQ = CN[C@@H](CCC(N)=O)C(=O)O; NMeK = CN[C@@H](CCCCN)C(=O)O; NMeC = CN[C@@H](CS)C(=O)O; MeK = methyl-L-lysine

B1: Macrocyclic peptide of Example 2-38 (SEQ ID No. 55) (peptide)
peptide: KSDXFTIXFGXC
modifications: not fully specified; MeKCOpipzaa-MeHseMe-D-MeDapCOpipzaa-F4COO-TMe-I-Yae-MeNal27N-G-3Py6Ph-MeC-NH2; thioether ring from N-terminal acetyl to MeC12
B2: Macrocyclic peptide of Example 2-32 (SEQ ID No. 49) (peptide)
peptide: KKDKFTIFFGXC
modifications: not fully specified; MeK-MeKCOpipzaa-D-MeKCOpipzaa-F4COO-TMe-I-F4aaopipzaa-MeNal27N-G-3Py6Ph-MeC-NH2; thioether ring from N-terminal acetyl to MeC12
B3: Macrocyclic peptide of Example 2-26 (SEQ ID No. 30) (peptide)
peptide: {CH2CO}-[NMeK][NMeI]D[NMeQ][Phe(4-COOH)][Thr(Me)(3)]I[F4aao][NMeAla(isoquinolin-7-yl)]G[3Pal(6-Ph)][NMeC]-NH2
modifications: thioether N-12
SMILES: CC[C@H](C)[C@@H]1NC(=O)[C@H]([C@@H](C)OC)NC(=O)[C@H](Cc2ccc(C(=O)O)cc2)NC(=O)[C@H](CCC(N)=O)N(C)C(=O)[C@H](CC(=O)O)NC(=O)[C@H]([C@@H](C)CC)N(C)C(=O)[C@H](CCCCN)N(C)C(=O)CSC[C@@H](C(N)=O)N(C)C(=O)[C@H](Cc2ccc(-c3ccccc3)nc2)NC(=O)CNC(=O)[C@H](Cc2ccc3ccncc3c2)N(C)C(=O)[C@H](Cc2ccc(OCC(=O)O)cc2)NC1=O
B4: Macrocyclic peptide of Example B8 (SEQ ID No. 42) (peptide)
peptide: {CH2CO}-[NMeK](d(tBuAla))[NMeI]D[NMeQ][Phe(4-COOH)]II[F4aao][NMeAla(isoquinolin-7-yl)]G[3Pal(6-Ph)][NMeC]-NH2
modifications: thioether N-12
SMILES: CC[C@H](C)[C@@H]1NC(=O)[C@H](Cc2ccc(C(=O)O)cc2)NC(=O)[C@H](CCC(N)=O)N(C)C(=O)[C@H](CC(=O)O)NC(=O)[C@H]([C@@H](C)CC)N(C)C(=O)[C@H](CCCCNC(=O)[C@H](N)CC(C)(C)C)N(C)C(=O)CSC[C@@H](C(N)=O)N(C)C(=O)[C@H](Cc2ccc(-c3ccccc3)nc2)NC(=O)CNC(=O)[C@H](Cc2ccc3ccncc3c2)N(C)C(=O)[C@H](Cc2ccc(OCC(=O)O)cc2)NC(=O)[C@H]([C@@H](C)CC)NC1=O
B5: PLB-35 (peptide)
peptide: KQDQFTIFFGXC
modifications: biotin-PEG12c conjugate of the peptide of SEQ ID No. 35 (MeK-MeQ-D-MeQ-F4COO-TMe-I-F4aao-MeNal27N-G-3Py6Ph-MeC-NH2); site of attachment shown only in a drawing; thioether ring from N-terminal acetyl to MeC12

Target: T1, Human Glypican3-Fc (ACRO Biosystems, GP3-H5258) (human, UniProt P51654 25-559)
T1 construct: Bought fusion protein, captured in Methods B-2, B-3 and B-4; Catalogue number is printed only in Method B-2; not shown: Fc part of the bought fusion
Experiment: SPR (Biacore T200), Method B-3: Glypican3-Fc captured on Protein A chip, peptide as analyte
Description: A Protein A sensor chip (Cytiva) was inserted into a Biacore T200 (Cytiva), priming was performed three times with a running buffer: HBS-P+, pH 7.4 (Cytiva), and equilibration was carried out at a flow rate of 30 μL/min. Glypican3-Fc was allowed to react for 60 seconds at a flow rate of 10 μL/min. After capturing human Glypican3-Fe, a peptide solution prepared to 10 mM in DMSO solution was diluted with a running buffer to a final concentration of 10 μM. […] Using the above samples, peptide kinetics for Glypican3 was obtained by SPR measurement. Kinetics evaluation of Glypican3 was performed by SPR measurements at a flow rate of 10 LL/min, setting the association time to 120 seconds and the disassociation time to 600 seconds.
The obtained data by Method B-1, Method B-2, Method B-3 and Method B-4 were analyzed by follow. Single Cycle Kinetics was used as the kinetics evaluation model, and curve fitting was performed using Biacore T200 Evaluation Software Version 3.0 (Cytiva).

Binder | Kd [nM]
{CH2CO}-[NMeK][MeKCOpipzaa]D[MeDapCOpipzaa][Phe(4-COOH)][Thr(Me)″]I[F4aao][NMeAla(isoquinolin-7-yl)]G[3Pal(6-Ph)][NMeC]-NH2 (thioether N-12) [Macrocyclic peptide of Example 2-29 (SEQ ID No. 46)] | 1
B1 | 1.8
B2 | 1.8
B3 | 0.3
{CH2CO}-[MeK][MeHseMe(3)]D[NMeQ][Phe(4-COOH)]II[Phe(4-CH2COOH)][NMe2Nal]G[3Pal(6-Ph)][NMeC]-NH2 (thioether N-12) [Macrocyclic peptide of Example 2-47 (SEQ ID No. 21)] | 0.2
B4 | 0.57
{CH2CO}-[NMeK](SulfoCy5)[MeHseMe]D[NMeQ][Phe(4-COOH)]II[F4aao][NMeAla(isoquinolin-7-yl)]G[3Pal(6-Ph)][NMeC]-NH2 (thioether N-12) [Mod5] | 3.6
{CH2CO}-[NMeK](SulfoCy5(3))[NMeI]D[NMeQ][Phe(4-COOH)]IIY[NMeAla(isoquinolin-7-yl)]G[3Pal(6-Ph)][NMeC]-NH2 (thioether N-12) [PLD-1] | 0.32
{CH2CO}-[NMeK]([PEG12-Biotin])[NMeI]D[NMeQ][Phe(4-COOH)]IIY[NMeAla(isoquinolin-7-yl)]G[3Pal(6-Ph)][NMeC]-NH2 (thioether N-12, Biotin conjugate) [PLB-1] | 0.25
B5 | 3.63
{CH2CO}-[NMeK](dE)[NMeI]D[NMeQ][Phe(4-COOH)]II[F4aao][NMeAla(isoquinolin-7-yl)]G[3Pal(6-Ph)][NMeC]-NH2 (thioether N-12) [Macrocyclic peptide of Example B9 (SEQ ID No. 33)] | 0.52
{CH2CO}-[NMeK](SulfoCy5)[NMeI]D[NMeQ][Phe(4-COOH)][TMe]IY[NMeAla(isoquinolin-7-yl)]G[3Pal(6-Ph)][NMeC]-NH2 (thioether N-12) [Mod6] | 0.24
